Data taken from paper PMC11151596, “Improving the enzymatic activity and stability of N-carbamoyl hydrolase using deep learning approach” (Microbial Cell Factories, 2024).

System: T1, NC(=O)NC(C(=O)O)c1ccc(O)cc1
T1 construct: pET-28a(+)-Case, N- and C-terminal His6 tags, expressed in E. coli BL21(DE3), Ni-NTA purified, about 37 kDa
Assay: HPLC of D-HPG formed, double reciprocal plot
Assay type: biochemical, Agrobacterium sp. KNK712
Conditions: 50 mM Tris-HCl pH 7.5, 65 °C, 0.1-10.0 mM CpHPG
Source text: HPLC of D-HPG formed, double reciprocal plot on DCase (N-carbamoyl-D-amino acid amidohydrolase, EC 3.5.1.77; N-carbamoyl hydrolase)

Substance | Km | kcat | kcat/Km
DCase (N-carbamoyl-D-amino acid amidohydrolase, EC 3.5.1.77; N-carbamoyl hydrolase) (Agrobacterium sp. KNK712; A302C/Q4C) | 2560 ± 150 µM | 29.2 ± 0.733 s⁻¹ | 11400 ± 516 M⁻¹ s⁻¹
DCase (N-carbamoyl-D-amino acid amidohydrolase, EC 3.5.1.77; N-carbamoyl hydrolase) (Agrobacterium sp. KNK712; A302C/Q4C/T212A) | 2380 ± 620 µM | 30.4 ± 0.703 s⁻¹ | 12800 ± 572 M⁻¹ s⁻¹
DCase (N-carbamoyl-D-amino acid amidohydrolase, EC 3.5.1.77; N-carbamoyl hydrolase) (Agrobacterium sp. KNK712; A302C/Q4C/T212G) | 2340 ± 260 µM | 36.7 ± 0.658 s⁻¹ | 15700 ± 939 M⁻¹ s⁻¹
DCase (N-carbamoyl-D-amino acid amidohydrolase, EC 3.5.1.77; N-carbamoyl hydrolase) (Agrobacterium sp. KNK712; A302C/Q4C/T212S) | 2120 ± 260 µM | 38.1 ± 0.658 s⁻¹ | 18000 ± 722 M⁻¹ s⁻¹
DCase (N-carbamoyl-D-amino acid amidohydrolase, EC 3.5.1.77; N-carbamoyl hydrolase) (Agrobacterium sp. KNK712; A302C/Q4C/T212V) | 2190 ± 260 µM | 32.9 ± 0.658 s⁻¹ | 15000 ± 1200 M⁻¹ s⁻¹
DCase (N-carbamoyl-D-amino acid amidohydrolase, EC 3.5.1.77; N-carbamoyl hydrolase) (Agrobacterium sp. KNK712; Q4C) | 2440 ± 460 µM | 12.6 ± 0.371 s⁻¹ | 5150 ± 265 M⁻¹ s⁻¹
